# From PMC11093223 (2024)
# B1: syntaxin-16 (209–221) peptide [human] / TBC1D23 C-terminal domain [mouse] (parent complex)
# chain 1: DDNTLYHRGFTED
# chain 2: DRKEVVNIQTWINKPDIKHHFPCKEVKESGHMFPSHLLVTATHMYCLREILSRKGLAYIQSRQALNSVVKITSKKKHPELITFKYGNSSASGIEILAIERYLIPNAGDATRAIKQQIMKVLDALES
# Variants of: B1
# Experiment: ITC
row,Kd [µM],Variant
1,10.3,chain 1 R8A
